Encoding yield data for 5 molecules are collected here from patent US20230220589A1.

Where a chain is given by its changes, count along the chain named.

In assay [1] the target is M44-modified V NTAA target peptides. The assay is described as follows: encoding assay; P2 V.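 Note: fraction of recording tags encoded.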
In assay [2] the target is M17-modified A NTAA target peptides. The assay is described as follows: encoding assay; P2 I.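 Note: fraction of recording tags encoded.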
The target in assay [3] is M17-modified D NTAA target peptides. The assay is described as follows: encoding assay; P2 I.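 Note: fraction of recording tags encoded.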
Assay [4] deals with M17-modified E NTAA target peptides. The assay is described as follows: encoding assay; P2 I.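 Note: fraction of recording tags encoded.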
For assay [5], the target named is M17-modified F NTAA target peptides. Briefly: encoding assay; P2 I.
The target of assay [6] is M17-modified G NTAA target peptides. Briefly: encoding assay; P2 I.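 Note: fraction of recording tags encoded.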
Assay [7] concerns the target M17-modified H NTAA target peptides. The assay is described as follows: encoding assay; P2 I.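 Note: fraction of recording tags encoded.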
Assay [8] addresses M17-modified L NTAA target peptides. The assay is described as follows: encoding assay; P2 I.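 Note: fraction of recording tags encoded.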
In assay [9] the target is M17-modified M NTAA target peptides. The assay is described as follows: encoding assay; P2 I.
Assay [10] concerns the target M17-modified N NTAA target peptides. Briefly: encoding assay; P2 I.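 Note: fraction of recording tags encoded.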
The target of assay [11] is M17-modified V NTAA target peptides. Briefly: encoding assay; P2 I.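 Note: fraction of recording tags encoded.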
Assay [12] addresses M17-modified W NTAA target peptides. The assay is described as follows: encoding assay; P2 I.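 Note: fraction of recording tags encoded.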
The target in assay [13] is M17-modified Y NTAA target peptides (M17-Y-P2-peptide). The assay is described as follows: encoding assay; P2 I.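 Note: fraction of recording tags encoded.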
Assay [14] has as its target M17-modified A NTAA target peptides. Briefly: encoding assay; P2 L.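 Note: fraction of recording tags encoded.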
The target of assay [15] is M17-modified D NTAA target peptides. Briefly: encoding assay; P2 L.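 Note: fraction of recording tags encoded.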
Assay [16] addresses M17-modified E NTAA target peptides. The assay is described as follows: encoding assay; P2 L.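 Note: fraction of recording tags encoded.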
For assay [17], the target named is M17-modified F NTAA target peptides. The assay is described as follows: encoding assay; P2 L.
Assay [18] concerns the target M17-modified G NTAA target peptides. Briefly: encoding assay; P2 L.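 Note: fraction of recording tags encoded.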
In assay [19] the target is M17-modified H NTAA target peptides. The assay is described as follows: encoding assay; P2 L.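 Note: fraction of recording tags encoded.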
In assay [20] the target is M17-modified I NTAA target peptides. The assay is described as follows: encoding assay; P2 L.
For assay [21], the target named is M17-modified L NTAA target peptides. The assay is described as follows: encoding assay; P2 L.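 Note: fraction of recording tags encoded.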
Assay [22] addresses M17-modified M NTAA target peptides. The assay is described as follows: encoding assay; P2 L.
Assay [23] has as its target M17-modified N NTAA target peptides. Briefly: encoding assay; P2 L.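 Note: fraction of recording tags encoded.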
Assay [24] has as its target M17-modified P NTAA target peptides. The assay is described as follows: encoding assay; P2 L.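 Note: fraction of recording tags encoded.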
For assay [25], the target named is M17-modified Q NTAA target peptides. The assay is described as follows: encoding assay; P2 L.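 Note: fraction of recording tags encoded.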
For assay [26], the target named is M17-modified S NTAA target peptides. The assay is described as follows: encoding assay; P2 L.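 Note: fraction of recording tags encoded.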
Assay [27] has as its target M17-modified T NTAA target peptides. Briefly: encoding assay; P2 L.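 Note: fraction of recording tags encoded.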
The target in assay [28] is M17-modified V NTAA target peptides. The assay is described as follows: encoding assay; P2 L.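 Note: fraction of recording tags encoded.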
The target of assay [29] is M17-modified W NTAA target peptides. Briefly: encoding assay; P2 L.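 Note: fraction of recording tags encoded.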
Assay [30] deals with M17-modified Y NTAA target peptides (M17-Y-P2-peptide). Briefly: encoding assay; P2 L.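 Note: fraction of recording tags encoded.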
Assay [31] has as its target M17-modified F NTAA target peptides. The assay is described as follows: encoding assay; P2 T.
Assay [32] concerns the target M17-modified I NTAA target peptides. Briefly: encoding assay; P2 T.
The target in assay [33] is M17-modified M NTAA target peptides. Briefly: encoding assay; P2 T.
The target of assay [34] is M17-modified A NTAA target peptides. Briefly: encoding assay; P2 V.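 Note: fraction of recording tags encoded.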
The target of assay [35] is M17-modified D NTAA target peptides. The assay is described as follows: encoding assay; P2 V.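 Note: fraction of recording tags encoded.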
Assay [36] has as its target M17-modified E NTAA target peptides. The assay is described as follows: encoding assay; P2 V.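 Note: fraction of recording tags encoded.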
For assay [37], the target named is M17-modified F NTAA target peptides. Briefly: encoding assay; P2 V.
Assay [38] concerns the target M17-modified G NTAA target peptides. Briefly: encoding assay; P2 V.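 Note: fraction of recording tags encoded.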
In assay [39] the target is M17-modified H NTAA target peptides. The assay is described as follows: encoding assay; P2 V.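 Note: fraction of recording tags encoded.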
Assay [40] deals with M17-modified I NTAA target peptides. The assay is described as follows: encoding assay; P2 V.
The target of assay [41] is M17-modified L NTAA target peptides. The assay is described as follows: encoding assay; P2 V.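 Note: fraction of recording tags encoded.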
In assay [42] the target is M17-modified M NTAA target peptides. Briefly: encoding assay; P2 V.
In assay [43] the target is M17-modified N NTAA target peptides. The assay is described as follows: encoding assay; P2 V.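 Note: fraction of recording tags encoded.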
Assay [44] deals with M17-modified P NTAA target peptides. The assay is described as follows: encoding assay; P2 V.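 Note: fraction of recording tags encoded.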
Assay [45] deals with M17-modified Q NTAA target peptides. Briefly: encoding assay; P2 V.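 Note: fraction of recording tags encoded.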
Assay [46] concerns the target M17-modified S NTAA target peptides. The assay is described as follows: encoding assay; P2 V.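 Note: fraction of recording tags encoded.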
For assay [47], the target named is M17-modified T NTAA target peptides. The assay is described as follows: encoding assay; P2 V.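 Note: fraction of recording tags encoded.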
Assay [48] concerns the target M17-modified V NTAA target peptides. Briefly: encoding assay; P2 V.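 Note: fraction of recording tags encoded.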
Assay [49] concerns the target M17-modified W NTAA target peptides. The assay is described as follows: encoding assay; P2 V.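 Note: fraction of recording tags encoded.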
Assay [50] has as its target M17-modified Y NTAA target peptides (M17-Y-P2-peptide). The assay is described as follows: encoding assay; P2 V.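 Note: fraction of recording tags encoded.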
Assay [51] addresses M44-modified P NTAA target peptides. Briefly: encoding assay; P2 I.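 Note: fraction of recording tags encoded.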
Assay [52] addresses M44-modified S NTAA target peptides. The assay is described as follows: encoding assay; P2 T.
Assay [53] concerns the target M44-modified E NTAA target peptides. Briefly: encoding assay; P2 V.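 Note: fraction of recording tags encoded.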
Assay [54] has as its target M44-modified G NTAA target peptides (M44-G-P2-peptide). Briefly: encoding assay; P2 V.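 Note: fraction of recording tags encoded.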

B1: engineered M44-L binder (SEQ ID NO: 21) (designed binder, not shown: small tags and cut ends; large carriers)
chain: QVSVQPNFQQDKFLGRWFYAGHASNSSWYREKVAALSMAKLVVAPATDGGLNATETFLRKNQCETITSLLQPAGSLGSYSSRSPHGGSTWSTSVVETDYDQYALLYLQGSKGPGEDFRGAILASRTQTPRAELKEKFTAFSKAQGFTEDTIVFLPQTDKCMTEQ
As to B1, the encoding yield in assay [1] came to 0.01.

B2: engineered M17-Y binder (SEQ ID NO: 61) (designed binder, not shown: small tags and cut ends; large carriers)
chain: TVPDRSEIAGKWYVVALASNTEFYLREKDWVKSAMARISFLGEDELKVSSAVPSPNGCYKVERTWKKTSDDGEVYNSRAAKLKVEVLDTDYKSYAVIYATRVKDGRTDHQMILYSRSPEVSPAATAIFRKLAGERNYTDEMVAMLPRQEECTVDEV
As for B2, the encoding yield is 0.02 in assay [2]; 0.02 in assay [3]; 0.03 in [4]; 0.03 in [5]; 0.01 in assay [6]; 0.04 in assay [7]. Further, the encoding yield in assay [8] was determined as 0.02; in assay [9], 0.01; in assay [10] it was 0.03; in assay [11], 0.03; in [12], 0.02; in assay [13], 0.17. Also, the encoding yield in assay [14] came out at 0.02; in assay [15], 0.02; in assay [16] it was 0.03; in assay [17] it was 0.04; in assay [18] it was 0.02; in assay [19], 0.02. The encoding yield was determined as 0.01 in assay [20]; 0.06 in [21]; 0.03 in assay [22]; 0.03 in assay [23]; 0.02 in [24]; 0.02 in assay [25]. The encoding yield was 0.03 in assay [26]; 0.01 in assay [27]; 0.02 in assay [28]; 0.01 in [29]; 0.17 in [30]; 0.06 in assay [31]. Further, the encoding yield in assay [32] worked out at 0.06; in assay [33], 0.01; in assay [34], 0.02; in assay [35] it was 0.03; in assay [36], 0.01; in assay [37], 0.13. Also, the encoding yield stood at 0.01 in assay [38]; 0.04 in assay [39]; 0.05 in assay [40]; 0.02 in assay [41]; 0.02 in assay [42]; 0.02 in [43]. In addition, the encoding yield in assay [44] was determined as 0.02; in assay [45], 0.02; in assay [46], 0.02; in assay [47] it was 0.03; in assay [48] it was 0.01; in assay [49] it was 0.04. In [50], this molecule gave an encoding yield of 0.22.

B3: upgraded binder after additional maturation round (SEQ ID NO: 62) (designed binder, not shown: small tags and cut ends; large carriers)
chain: B2 chain with E27G, W30R, A36V, L41Q, G105R, E119D
With B3, the encoding yield in assay [2] came out at 0.03; in assay [3] it was 0.02; in assay [4], 0.03; in assay [5], 0.05; in assay [6], 0.02; in assay [7], 0.04. In addition, the encoding yield in assay [8] was determined as 0.05; in assay [9], 0.02; in assay [10], 0.03; in assay [11], 0.05; in assay [12] it was 0.04; in assay [13], 0.31. For the same molecule, the encoding yield in assay [14] is 0.02; in [15], 0.02; in [16], 0.03; in assay [17], 0.08; in assay [18], 0.02; in assay [19], 0.04. Besides, the encoding yield in [20] is 0.06; in [21], 0.12; in [22] it was 0.03; in [23], 0.03; in assay [24], 0.03; in [25], 0.03. The encoding yield in assay [26] is 0.03; in assay [27], 0.02; in [28], 0.04; in assay [29], 0.04; in [30], 0.29; in assay [31], 0.08. Further, the encoding yield is 0.1 in assay [32]; 0.02 in [33]; 0.03 in assay [34]; 0.03 in [35]; 0.02 in [36]; 0.17 in assay [37]. In addition, the encoding yield in assay [38] was found to be 0.02; in assay [39] it was 0.04; in assay [40], 0.07; in [41], 0.03; in assay [42] it was 0.03; in assay [43], 0.03. The encoding yield in assay [44] is 0.03; in assay [45], 0.02; in [46] it was 0.03; in assay [47], 0.04; in assay [48] it was 0.01; in [49], 0.08. This molecule returned an encoding yield in assay [50] of 0.32.

B4: engineered M44-A binder (SEQ ID NO: 42) (designed binder, not shown: small tags and cut ends; large carriers)
chain: QVSVQPNFQQDKFLGRWFVAGLASNSSWDREKVAALSGAKMVVAPATDGGLNVTRTMLRKNQCETYTGLLQPAGSLGSYSWRSPHPGSTGSESVVETDYDQYALVYGQGSKGPGEDLRAAALWSRTQTPRAELKEKFTAFSKAQGFTEDTIVFLPQTDKCMTEQ
For B4, the encoding yield in assay [51] worked out at 0.01; in assay [52] it was 0.01; in assay [53], 0.03; in assay [54], 0.01; in [1], 0.01.

B5: engineered M44-L binder (SEQ ID NO: 31) (designed binder, not shown: small tags and cut ends; large carriers)
chain: QDSTQNLIPAPPLISVPLQPGFWTERFQGRWFLVGFAGNAVQKERQSRLTMQSLILELQEDNSYNITAINVRGQGCRYIISTLVPSSRPGQFTLGNIHSYPQIQSLDVQVADTDYDQFAMVFLQGTSENKQYFEVALAGRTKGLSDELKERFVSFAKSLGLKDNNIVFSVPTDQCIDN
B5: the encoding yield in [51], in assay [52], in assay [53] and in assay [54] was 0.01 in each case.
